The record followed here is US20200239555A1 (STATEN BIOTECHNOLOGY B V, published 2020).

The target in experiment [1] is T1, native human ApoC3 (human, UniProt P02656 21-99).
T1 construct: also called nhuApoC3; native huApoC3
The experiment is described as follows: SPR, IgG1 over ApoC3 on CM5 chip, pH 5.5. The protocol: (§1) Based on the results in Example 1, test scFv-Fc antibodies were generated as human IgG₁ antibodies. An SPR-based assay was employed, in which human ApoC3 protein was immobilized on a CM5 chip, and the binding kinetics of test antibodies to the coated chip were measured at both pH 7.4 and pH 5.5. Briefly, a solution of 50 μg/ml of native human ApoC3 in 10 mM acetate buffer at pH 4.5 was prepared and injected until the surface density reached approximately 500 RU. 60 μl of each test antibody was diluted in HBS-EP buffer (GE, cat. nr. BR-1008-26; 0.010 M HEPES, 0.150M NaCl, 3 mM EDTA, 0.05% (v/v) surfactant P20, pH 7.4), and was injected at a concentration as described in Table 9. The test antibodies were passed through the flow cells at a flow rate of 30 μl/min, followed by an off-rate wash at pH 7.4 or pH 5.5 for 5 min. The resulting sensorgrams were analyzed using the BIAevaluation 4.1 software applying the Langmuir 1:1 binding model to derive binding kinetics. Data was zero adjusted and the reference cell sensorgrams were subtracted.

In experiment [2] the target is T1, native human ApoC3. The experiment is described as follows: SPR, IgG1 over ApoC3 on CM5 chip, pH 7.4. As for the experimental part:
as §1
Background: In SPR one partner is held on a chip, and binding of the other changes the refractive index at the surface.

Experiment [3] deals with T2, biotinylated native human ApoC3 (human, UniProt P02656 21-99, biotinylated (site not stated)).
T2 construct: also called biotinylated human ApoC3
T2 sequence (P02656 21-99): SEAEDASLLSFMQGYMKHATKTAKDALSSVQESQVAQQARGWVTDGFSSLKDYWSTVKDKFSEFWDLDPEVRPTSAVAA
The experiment is described as follows: SPR, IgG1 over biotinylated ApoC3 on SA chip. The method, boiled down: (§2)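 Biotinylated native human ApoC3 was captured on a streptavidin chip (~500 RU), and IgG1 at 1-50 nM was injected in HBS-EP at pH 7.4, or at pH 5.5 with 10 mM citrate added. Dissociation was followed for 5 min. Double-referenced sensorgrams were fit to a 1:1 Langmuir model, and fits were considered not applicable when kd was below 1×10⁻⁶ 1/s.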

Experiment [4] deals with T2, biotinylated native human ApoC3. The experiment is described as follows: SPR, IgG1 over biotinylated ApoC3 on SA chip, pH 5.5. Summed up:
as §2

Experiment [5] has the same target. Briefly: SPR, IgG1 over biotinylated ApoC3 on SA chip, pH 7.4. The method, boiled down:
as §2

For experiment [6] the target is unchanged. The experiment is described as follows: SPR, IgG1 over biotinylated ApoC3 on SA chip, pH 7.4; pH 7.4. The protocol: Biotinylated native human ApoC3 was captured on a streptavidin coated SPR chip (GE Healthcare, cat. nr. BR100032) at pH 7.4, in accordance with the method provided by Biacore, by injection of 20 μl 10 μg/ml biotinylated native human ApoC3 reaching the surface density of approximately 500 RU. 60 μL of test antibody in 1-50 nM range diluted in HBS-EP buffer (GE, cat # BR-1008-26; 0.010 M HEPES, 0.150M NaCl, 3 mM EDTA, 0.05% (v/v) surfactant P20, pH 7.4) was injected and passed through the flow cells at a flow rate of 30 μl/min, followed by an off-rate wash at pH7.4 for 5 min. After the dissociation, the flow cell surfaces were regenerated by injecting 10 μl of 10 mM NaOH/1 M NaCl and 10 μl of 10 mM glycine at pH1.5. The assay was repeated at pH5.5 using the same general protocol, where the running and sample dilution buffer was replaced by a HBS-EP buffer supplemented with citrate buffer to 10 mM final concentration and pH adjusted to 5.5.
The resulting sensorgrams were analyzed using the BIAevaluation 4.1 software using Langmuir 1:1 binding model to derive binding kinetics. Data was zero adjusted and the reference cell sensorgrams were subtracted. Sensorgrams were double referenced to no-analyte blank assay. Fitted parameters were considered not applicable if off-rate values were below the equipment's detection limit of kd: 1×10⁻⁶ 1/s.

Where “and” joins values, the source holds several entries; their conditions need not be identical. Equal entries are not always repeated.

T1 sequence (P02656 21-99): as above

B1: 5E5VH12_VLWT human IgG1 (antibody, V domains shown)
VH: QLQLVESGGGLVQPGGSLRLSCAASGFTFGTYSMRWVRQVPRKALEWVSSISTDGGGTAYRDSVKGRFTISRDNAKNTLYLQMNNLKPEDTAIYYCVIHGYSDWGQGTQVTVSS
VL: ATMLTQSPGSLSVVPGESASISCKTSQGLVHSDGKTYFYWFLQKPGQSPQQLIYQVSNRASGVPDRFTGSGSGTDFTLKISGVKAEDAGVYYCAQGTYYPHTFGSGTRLEIK
As for B1, the koff – broadly, a measure of how fast the partners let go of each other – is 0.000374 s⁻¹ with native human ApoC3 [1], 1.38e-05 s⁻¹ with native human ApoC3 [2], 0.000143 s⁻¹ in experiment [4] and 1.12e-05 s⁻¹ in experiment [5]. For the same molecule, the kon (usually the second-order rate constant of association) was 366000 M⁻¹ s⁻¹ with native human ApoC3 [1], 393000 M⁻¹ s⁻¹ with native human ApoC3 [2], 302000 M⁻¹ s⁻¹ in experiment [4] and 656000 M⁻¹ s⁻¹ in experiment [5]. The “KD pH5.5/KD pH7.4” value in experiment [3] amounted to 27.6. The Ka in experiment [4] amounted to 2.12e+09 M⁻¹; in experiment [6], 5.84e+10 M⁻¹. For the same molecule, the Kd (in general, the free concentration of one partner at which half of the binding sites on the other are occupied at equilibrium, for simple one-to-one binding) was 0.472 nM and 0.47 nM in experiment [4]; 0.0171 nM and 0.02 nM in experiment [5].
